Source: patent US20250326817A1 (LA JOLLA INSTITUTE FOR IMMUNOLOGY, published 2025)

Key:
[1] = target: T1, mouse BTLA, soluble protein (analyte of the Octet assay) (mouse, UniProt Q7TSA3 30-183, limits assumed); assay: Octet bio-layer interferometry, mHVEM-hIgG1 on the sensor, BTLA in solution
T1 construct: The construct is not described; also called mBTLA; mBTLA-penta-His-tag
T1 sequence (looked up): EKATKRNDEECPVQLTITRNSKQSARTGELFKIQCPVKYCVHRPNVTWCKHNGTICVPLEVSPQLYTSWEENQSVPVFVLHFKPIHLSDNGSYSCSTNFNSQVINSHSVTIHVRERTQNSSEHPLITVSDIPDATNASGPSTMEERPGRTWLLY
Description: (§1) The results were exported and then analyzed using Prism 5 (GraphPad Software). Final response curves were generated after subtracting the responses of the control groups.

[2] = target: T1, mouse BTLA, soluble protein (analyte of …); assay: Octet bio-layer interferometry, mHVEM-hIgG1 on the sensor, mBTLA in solution
Description: (§2) Error bars represent results from at least triplicates. […] Ligands BTLA, CD160 and LIGHT are modeled based on the HVEM structures and are shown as labeled surfaces.
as §1

[3] = target: T2, mouse CD160 residues I30-H154 with C-terminal …, refolded from E. coli inclusion bodies (mouse, UniProt O88875 30-154, biotin (mCD160-biotin in the cell staining assay; site not stated)); assay: Octet bio-layer interferometry, mHVEM-hIgG1 on the sensor, CD160 in solution
T2 construct: range 30-154; also called mCD160; mCD160-biotin
T2 sequence: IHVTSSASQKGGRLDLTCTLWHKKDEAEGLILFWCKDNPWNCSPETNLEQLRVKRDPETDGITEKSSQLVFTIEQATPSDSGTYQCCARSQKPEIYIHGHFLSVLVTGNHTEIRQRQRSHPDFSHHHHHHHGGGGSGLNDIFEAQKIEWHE
Description: as §1

[4] = target: T3, single chain homotrimeric mouse LIGHT extracellular domain (G73-V239), N-terminal HHHHHHGG, joined by two … (mouse, UniProt Q9QYH9 73-239); assay: Octet bio-layer interferometry, mHVEM-hIgG1 on the sensor, mLIGHT in solution
T3 construct: Soluble analyte of the Octet assay; from Expi293 cells; also called mLIGHT
T3 sequence: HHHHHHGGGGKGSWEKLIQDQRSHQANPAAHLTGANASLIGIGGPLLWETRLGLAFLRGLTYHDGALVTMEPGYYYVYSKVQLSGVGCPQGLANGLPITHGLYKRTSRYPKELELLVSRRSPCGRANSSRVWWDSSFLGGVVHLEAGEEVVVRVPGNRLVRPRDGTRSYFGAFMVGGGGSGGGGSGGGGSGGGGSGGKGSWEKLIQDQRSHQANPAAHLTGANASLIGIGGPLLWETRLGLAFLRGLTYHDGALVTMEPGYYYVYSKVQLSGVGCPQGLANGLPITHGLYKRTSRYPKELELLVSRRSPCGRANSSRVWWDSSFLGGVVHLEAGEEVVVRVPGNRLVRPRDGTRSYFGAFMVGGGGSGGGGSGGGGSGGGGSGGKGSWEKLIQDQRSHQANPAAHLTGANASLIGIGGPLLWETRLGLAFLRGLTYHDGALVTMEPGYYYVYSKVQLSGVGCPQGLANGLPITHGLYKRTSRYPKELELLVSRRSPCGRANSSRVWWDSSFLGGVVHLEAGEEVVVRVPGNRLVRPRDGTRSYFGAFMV
Description: as §2, §1

[5] = target: T3, single chain homotrimeric mouse LIGHT …; assay: Octet bio-layer interferometry, mHVEM-hIgG1 on the sensor, LIGHT in solution
Description: as §1

[6] = target: T2, mouse CD160 residues I30-H154 with …; assay: Octet BLI, mHVEM-hIgG1 immobilised (text says surface plasmon resonance)
Description: as §1

[7] = target: T1, mouse BTLA, soluble protein (analyte of …); assay: as above
Description: as §1

[8] = target: T3, single chain homotrimeric mouse LIGHT …; assay: as above
Description: as §1

[9] = target: T2, mouse CD160 residues I30-H154 with …; assay: Octet bio-layer interferometry, mHVEM-hIgG1 on the sensor, mCD160 in solution
Description: as §2, §1

B1: mouse HVEM (Q39-Q206) H86D-L90A fused to human IgG1 and a hexa-His tag, soluble form (Fc fusion)
chain (part 1 of 2): QPSCRQEEFLVGDECCPMCNPGYHVKQVCSEHTGTVCAPCPPQTYTADANGASKCLPCGVCDPDMGLLTWQECSSWKDTVCRCIPGYFCENQDGSHCSTCLQHTTCPPGQRVEKRGTHDQDTVCADCLTGTFSLGGTQEECLPWTNCSAFQQEVRRGTNSTDTTCSSQ
chain (part 2 of 2): HHHHHH
notes: also called mHVEM^-LIGHT; mHVEM-LIGHT; not shown: human IgG1
[1]
  Kd: 5.3 µM
[2]
  Kd: 5.3 µM
[3]
  Kd: 33.5 µM
[4]
  Kd: 31.7 µM
[5]
  Kd: 31.7 µM
[6]
  fold reduction of binding against wild-type mHVEM: ~3 fold
[7]
  fold reduction of binding against wild-type mHVEM: ~5 fold
[8]
  log-fold decrease in binding against wild-type mHVEM: > 3 log-fold
[9]
  Kd: 33.5 µM
